The FLAb antibody collection (doi:10.1101/2023.12.08.570889)
Positions count from the first letter of the chain named.

B1: unnamed (protein)
chain 1: EVQLVQSGAEVKKPGESLRISCKGSGYTFSSYWISWVRQMPGKGLEWMGKIYPGDSYTNYSPSFQGQVTISADKSISTAYLQWSSLKASDTAMYYCTRGYGLFDYWGQGTLVTVSS
chain 2: SYELTQPPSVSVSPGQTASITCSGDNIGDQYAHWYQQKPGQSPVLVIYQDKNRPSGIPERFSGSNSGNTATLTISGTQAMDEADYYCATYTGFGSLAVFGGGTKLTVL
B2: unnamed (protein)
chain 1: B1 chain 1 with S31N, T97A, Y100E
chain 2: B1 chain 2
B3: unnamed (protein)
chain 1: B1 chain 1 with T28S, T97A, Y100T
chain 2: B1 chain 2
B4: unnamed (protein)
chain 1: B1 chain 1 with T28S, T97A, L102V
chain 2: B1 chain 2
B5: unnamed (protein)
chain 1: B1 chain 1 with S31D, T97A, L102I
chain 2: B1 chain 2
B6: unnamed (protein)
chain 1: B1 chain 1 with S31N, T97A, L102I
chain 2: B1 chain 2
B7: unnamed (protein)
chain 1: B1 chain 1 with T28S, T97A
chain 2: B1 chain 2
B8: unnamed (protein)
chain 1: B1 chain 1 with T97A, L102I
chain 2: B1 chain 2
B9: unnamed (protein)
chain 1: B1 chain 1 with S31D, T97A
chain 2: B1 chain 2
B10: unnamed (protein)
chain 1: B1 chain 1 with S31N, T97A
chain 2: B1 chain 2
B11: unnamed (protein)
chain 1: B1 chain 1 with T97A, L102I, F103L
chain 2: B1 chain 2
B12: unnamed (protein)
chain 1: B1 chain 1 with D55N, T97A, Y100D, L102V
chain 2: B1 chain 2
B13: unnamed (protein)
chain 1: B1 chain 1 with T28S, S31N, T97A
chain 2: B1 chain 2
B14: unnamed (protein)
chain 1: QMQLVESGGGVVQPGRSLRLSCAASGFTFRTYGMHWVRQAPGKGLEWVAVIWYDGSNKHYADSVKGRFTITRDNSKNTLNLQMNSLRAEDTAVYYCAREPPLFYSSWSLDNWGQGTMVTVSS
chain 2: SYVLTQPPSVSVAPGQTARITCGGNNLGSKSVHWYQQKPGQAPVLVVYDDSDRPSWIPERFSGSNSGNTATLTISRGEAGDEADYYCQVWDSSSDHVVFGGGTKLTVL
B15: unnamed (protein)
chain 1: QMQLVESGGGVVQPGRSLRLSCAASGFTFRTYGMHWVRQAPGKGLEWVAVIWYDGSNKHYADSVKGRFTITRDNSKNTLNLQMNSLRAEDTAVYYCANLKDSRYSGSYYDYWGQGTMVTVSS
chain 2: B14 chain 2
B16: unnamed (protein)
chain 1: QMQLVESGGGVVQPGRSLRLSCAASGFTFRTYGMHWVRQAPGKGLEWVAVIWYDGSNKHYADSVKGRFTITRDNSKNTLNLQMNSLRAEDTAVYYCARPPYYYGTTYYFDYWGQGTMVTVSS
chain 2: B14 chain 2
B17: unnamed (protein)
chain 1: B16 chain 1 with P99D, P100E, Y101S, Y102T, Y103G, G104D, T105Y, T106Y, F109M, Y111V
chain 2: B14 chain 2
B18: unnamed (protein)
chain 1: B14 chain 1 with E99G, P101F, L102S, F103R, S105D, S106Y, W107F, S108A, L109M
chain 2: B14 chain 2
B19: unnamed (protein)
chain 1: B16 chain 1 with A97V, P99G, P100S, Y101I, Y102T, Y103W, G104P, T106E, F109L
chain 2: B14 chain 2

target: TNFRSF9, Q07011; experiment: Kd (SPR)

Row | Binder | Kd [nM]
1 | B1 | 109
2 | B2 | 51
3 | B3 | 150
4 | B4 | 228
5 | B5 | 120
6 | B6 | 86.4
7 | B7 | 51.1
8 | B8 | 58.6
9 | B9 | 84.1
10 | B10 | 117
11 | B11 | 59.4
12 | B12 | 32.9
13 | B13 | 145

target: TSLP, Q969D9; experiment: Kd (SPR)

Row | Binder | Kd [nM]
14 | B14 | 0.203
15 | B15 | 523
16 | B16 | 300
17 | B17 | 229
18 | B18 | 557
19 | B19 | 426
